This note sets out measurements from paper PMC3200309 (Cell, 2011).

As a reminder, the Kd is the free concentration of one partner at which half of the binding sites on the other are occupied at equilibrium, for simple one-to-one binding. A high value points to lower affinity. As usually defined, the koff is the first-order rate constant of dissociation. Read a low koff as a long-lived complex.

The target in assay [1] is PTP1B-CASA mutant (C215A, S216A), PTP1B (1-321) (Homo sapiens, UniProt P18031, Cys215 to Ala | Ser216 to Ala). Kind of assay: SPR. In general terms: Surface plasmon resonance follows binding to a sensor surface in real time, without labels.
Assay [2] has as its target scFv45 (conformation-sensor single chain variable fragment, purified from E. coli) (chicken). Kind of assay: SPR.

B1: scFv45 (conformation-sensor single chain variable fragment, purified from E. coli) (scFv, V domains shown)
VH: TVTLDESGGGLQAPGGALSLVCKASGFTFSSYDMGWIRQAPGKGLEYVAGITDNGRYASYGSAVDGRATISRDNGQSSVRLQLNNLRAEDTGTYYCARDDGSGWTGNSIDAWGHGTEVIVSS
VL: LTQPSSVSANPGGTVKITCSGSSSAYGYGWYQQKSPGSAPVTVIYNNNKRPSNIPSRFSGSKSGSTGTLTITGVQAEDEAVYFCGSEDSSTDAIFGAGTTLTVL
For B1, in assay [1], binding was characterised by a dissociation constant (Kd) of 52 nM.

B2: PTP1B-OX, PTP1B (1-321) reversibly oxidized with H2O2 (domain or fragment)
chain: MEMEKEFEQIDKSGSWAAIYQDIRHEASDFPCRVAKLPKNKNRNRYRDVSPFDHSRIKLHQEDNDYINASLIKMEEAQRSYILTQGPLPNTCGHFWEMVWEQKSRGVVMLNRVMEKGSLKCAQYWPQKEEKEMIFEDTNLKLTLISEDIKSYYTVRQLELENLTTQETREILHFHYTTWPDFGVPESPASFLNFLFKVRESGSLSPEHGPVVVHCSAGIGRSGTFCLADTCLLLMDKRKDPSSVDIKKVLLEMRKFRMGLIQTADQLRFSYLAVIEGAKFIMGDSSVQDQWKELSHEDLEPPPEHIPPPPRPPKRILEPHN
modifications: active site Cys215 reversibly oxidized (cyclic sulfenyl-amide: S of Cys215 linked to the main-chain N of Ser216)
For B2, in assay [2], the Kd stood at 46 nM and the koff is 0.0023 s⁻¹.
